One data set concerns the target T1, GgeAgo (Geobacillus genomosp. 3, UniProt S5Z517 1-710).
T1 sequence: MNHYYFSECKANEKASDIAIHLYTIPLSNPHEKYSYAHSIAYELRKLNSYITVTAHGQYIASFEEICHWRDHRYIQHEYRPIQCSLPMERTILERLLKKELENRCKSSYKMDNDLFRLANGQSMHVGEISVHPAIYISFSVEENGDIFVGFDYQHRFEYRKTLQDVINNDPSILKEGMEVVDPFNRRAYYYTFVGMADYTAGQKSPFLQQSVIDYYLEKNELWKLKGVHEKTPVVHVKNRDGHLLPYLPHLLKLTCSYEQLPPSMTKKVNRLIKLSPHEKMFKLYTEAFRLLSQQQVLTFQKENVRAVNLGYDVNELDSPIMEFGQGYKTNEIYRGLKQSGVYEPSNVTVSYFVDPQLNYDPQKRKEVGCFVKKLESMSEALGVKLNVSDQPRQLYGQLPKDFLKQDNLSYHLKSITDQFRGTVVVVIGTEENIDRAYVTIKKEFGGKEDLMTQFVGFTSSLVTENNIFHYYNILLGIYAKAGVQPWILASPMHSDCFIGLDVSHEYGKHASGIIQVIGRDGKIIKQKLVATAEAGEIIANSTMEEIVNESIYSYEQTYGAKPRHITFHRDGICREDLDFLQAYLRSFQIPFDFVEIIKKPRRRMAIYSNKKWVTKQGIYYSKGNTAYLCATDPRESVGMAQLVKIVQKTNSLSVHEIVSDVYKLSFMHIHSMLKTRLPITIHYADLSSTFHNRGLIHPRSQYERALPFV
In words: fluorescence polarization.

A further data set deals with T2, GgeAgo_DM (Geobacillus genomosp. 3, UniProt S5Z517 1-710, D502A;D571A).
T2 sequence: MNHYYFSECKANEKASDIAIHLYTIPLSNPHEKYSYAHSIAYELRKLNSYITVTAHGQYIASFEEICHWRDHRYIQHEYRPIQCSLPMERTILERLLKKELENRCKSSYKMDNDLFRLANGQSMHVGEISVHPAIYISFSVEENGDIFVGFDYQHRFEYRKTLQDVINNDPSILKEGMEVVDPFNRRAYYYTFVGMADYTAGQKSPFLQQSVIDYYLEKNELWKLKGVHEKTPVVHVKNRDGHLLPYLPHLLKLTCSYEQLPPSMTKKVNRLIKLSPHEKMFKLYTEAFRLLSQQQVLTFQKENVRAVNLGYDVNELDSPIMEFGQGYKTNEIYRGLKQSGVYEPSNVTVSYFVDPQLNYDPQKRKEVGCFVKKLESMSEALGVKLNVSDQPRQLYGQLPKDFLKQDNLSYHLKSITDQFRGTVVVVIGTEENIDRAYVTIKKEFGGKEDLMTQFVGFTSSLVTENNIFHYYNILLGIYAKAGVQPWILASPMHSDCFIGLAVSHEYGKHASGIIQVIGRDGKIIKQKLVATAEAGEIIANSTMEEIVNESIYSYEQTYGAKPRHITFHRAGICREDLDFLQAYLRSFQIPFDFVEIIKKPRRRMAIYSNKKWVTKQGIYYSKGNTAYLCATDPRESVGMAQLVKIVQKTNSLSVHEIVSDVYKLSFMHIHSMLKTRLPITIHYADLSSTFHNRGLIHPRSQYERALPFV
Nature of the data set: fluorescence polarization. (In fluorescence polarisation assays a small probe gives low polarisation when free and higher when bound to something large.)

Consider TGAGGTAGTAGGTTGTAT (ssDNA, 5' OH) [5'OH-gDNA (T-gDNA iFAM)], for which the affinity with GgeAgo, expressed as Kd, was 11.1 ± 1.88 nM.

B1: 5'P-gDNA / T-tDNA target (mixed)
DNA 1: TGAGGTAGTAGGTTGTAT
DNA 2: AAACGACGGCCAGTGCCAAGCTTACTATACAACCTACTACCTCAT
modifications: guide 5' phosphate
Consider B1, for which the affinity with GgeAgo_DM, expressed as Kd, was 8.69 ± 1.28 nM.

B2: 5'OH-gDNA / T-tDNA target (mixed)
DNA 1: TGAGGTAGTAGGTTGTAT
DNA 2: AAACGACGGCCAGTGCCAAGCTTACTATACAACCTACTACCTCAT
modifications: guide 5' OH
In the case of B2, in the data set with GgeAgo_DM, the Kd (commonly the free concentration of one partner at which half of the binding sites on the other are occupied at equilibrium, for simple one-to-one binding) came to 20 ± 2.29 nM.

TGAGGTAGTAGGTTGTAT (ssDNA, 5' phosphate) [5'P-gDNA (T-gDNA iFAM)]: the Kd with GgeAgo was found to be 8.23 ± 1.47 nM.

B3: 5'P-gDNA / U-tRNA (RNA target) (DNA:RNA)
DNA: TGAGGTAGTAGGTTGTAT
RNA: AAACGACGGCCAGUGCCAAGCUUACUAUACAACCUACUACCUCAU
modifications: guide 5' phosphate
Take B3: the Kd with GgeAgo_DM was 10.7 ± 1.11 nM.

B4: 5'OH-gDNA / U-tRNA (RNA target) (DNA:RNA)
DNA: TGAGGTAGTAGGTTGTAT
RNA: AAACGACGGCCAGUGCCAAGCUUACUAUACAACCUACUACCUCAU
modifications: guide 5' OH
B4 returned a Kd in the data set with GgeAgo_DM of 32.2 ± 4.9 nM.

The values above are taken from publication PMC12657969.
